Publication doi:10.1101/2022.01.06.475303

Experiments:
[1] = target: SARS-CoV-2 receptor binding domain (RBD), Wuhan-1 (SARS-CoV-2 Wuhan-Hu-1) (UniProt P0DTC2); assay: SPR
[2] = target: SARS-CoV-2 S protein (recombinant, His-tagged) (SARS-CoV-2 Wuhan-Hu-1 (MN908947)) (UniProt P0DTC2)

Substance | Kd [1] [nM] | fold higher binding affinity than for RBD [2] [fold]
CC6.30 IgG (antibody) | 1.7 | 
CC6.33 Fab |  | 10
CC6.33 IgG (antibody) | 257 | 
CC12.1 IgG (antibody) | 6 | 
